What was measured:
human B7-H1-mFc = target: T1, human B7-H1-mFc (human, UniProt Q9NZQ7 19-238); assay: ELISA, antigen coated at 1 ug/ml, 2#8890-biotin detected with streptavidin-peroxidase
T1 construct: Self-constructed; not shown: mFc

human B7-H4-hFc = target: T2, human B7-H4-hFc (human, UniProt Q7Z7D3 25-259); assay: as above
T2 construct: Bought protein; not shown: hFc
T2 sequence (looked up): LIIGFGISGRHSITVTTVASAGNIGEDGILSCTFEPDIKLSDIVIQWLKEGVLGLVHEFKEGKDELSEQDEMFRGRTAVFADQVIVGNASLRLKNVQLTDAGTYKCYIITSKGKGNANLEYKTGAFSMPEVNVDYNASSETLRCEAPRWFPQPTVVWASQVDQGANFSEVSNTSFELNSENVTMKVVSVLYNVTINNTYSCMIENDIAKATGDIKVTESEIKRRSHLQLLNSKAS

[1] = target: T3, human B7-H3 on human tumor cells (MCF-7, HT29, NCI-N87, HCC1806, HCC827) (human, UniProt Q5ZPR3 29-534); assay: flow cytometry on HT29 cells
T3 construct: whole, on cells
T3 sequence (looked up): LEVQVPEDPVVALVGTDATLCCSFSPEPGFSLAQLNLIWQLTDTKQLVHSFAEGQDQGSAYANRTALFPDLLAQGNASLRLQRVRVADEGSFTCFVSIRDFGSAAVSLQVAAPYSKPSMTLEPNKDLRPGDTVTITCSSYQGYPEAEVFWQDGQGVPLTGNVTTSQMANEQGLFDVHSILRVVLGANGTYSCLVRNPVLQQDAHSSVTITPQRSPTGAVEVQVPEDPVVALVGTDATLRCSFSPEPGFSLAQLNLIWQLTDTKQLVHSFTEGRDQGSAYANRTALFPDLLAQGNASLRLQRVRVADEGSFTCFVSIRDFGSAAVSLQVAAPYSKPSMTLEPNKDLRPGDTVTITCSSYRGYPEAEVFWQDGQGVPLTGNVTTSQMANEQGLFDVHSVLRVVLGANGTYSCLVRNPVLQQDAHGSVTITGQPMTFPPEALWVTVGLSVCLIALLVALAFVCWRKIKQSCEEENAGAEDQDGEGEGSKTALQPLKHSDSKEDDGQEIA

[2] = target: T4, human B7-H3-4Ig on CHO-S cells (CHO-S-human B7-H3-4Ig) (human, UniProt Q5ZPR3 29-534); assay: cell-based or functional assay
T4 sequence (looked up): T3 sequence (looked up)

human B7-1-his = target: T5, human B7-1-his (human, UniProt P33681 35-242); assay: ELISA, antigen coated at 1 ug/ml
T5 construct: Bought protein; not shown: his tag
T5 sequence (looked up): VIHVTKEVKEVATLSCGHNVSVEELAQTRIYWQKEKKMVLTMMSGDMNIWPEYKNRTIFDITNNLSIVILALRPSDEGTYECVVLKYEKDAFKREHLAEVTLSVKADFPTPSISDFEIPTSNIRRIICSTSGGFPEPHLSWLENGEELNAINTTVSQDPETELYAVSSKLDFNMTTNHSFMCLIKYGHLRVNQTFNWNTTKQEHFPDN

human B7-H2-his = target: T6, human B7-H2-his (human, UniProt O75144 19-256, limits assumed); assay: ELISA, antigen coated at 1 ug/ml
T6 construct: Bought protein; not shown: his tag
T6 sequence (looked up): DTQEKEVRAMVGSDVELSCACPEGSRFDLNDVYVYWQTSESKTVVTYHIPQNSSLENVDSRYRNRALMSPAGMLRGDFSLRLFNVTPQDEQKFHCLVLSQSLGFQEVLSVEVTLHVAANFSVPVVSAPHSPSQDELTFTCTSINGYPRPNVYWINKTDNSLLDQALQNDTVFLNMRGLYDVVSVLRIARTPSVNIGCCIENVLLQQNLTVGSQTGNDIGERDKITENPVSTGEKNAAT

human B7-2-his = target: T7, human B7-2-his (human, UniProt P42081 24-247, limits assumed); assay: ELISA, antigen coated at 1 ug/ml
T7 construct: Bought protein; not shown: his tag
T7 sequence (looked up): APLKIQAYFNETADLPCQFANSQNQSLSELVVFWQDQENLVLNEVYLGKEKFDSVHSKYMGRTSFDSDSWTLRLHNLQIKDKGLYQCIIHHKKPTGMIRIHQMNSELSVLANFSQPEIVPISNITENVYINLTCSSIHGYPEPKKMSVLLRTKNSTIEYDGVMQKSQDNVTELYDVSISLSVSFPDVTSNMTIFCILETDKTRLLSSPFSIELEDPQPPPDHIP

[3] = target: T8, human B7-H3-4Ig-His protein (human, UniProt Q5ZPR3 29-466); assay: ELISA, antigen coated at 1 ug/ml
T8 construct: extracellular domain; Made in HEK293-EBNA cells
T8 sequence: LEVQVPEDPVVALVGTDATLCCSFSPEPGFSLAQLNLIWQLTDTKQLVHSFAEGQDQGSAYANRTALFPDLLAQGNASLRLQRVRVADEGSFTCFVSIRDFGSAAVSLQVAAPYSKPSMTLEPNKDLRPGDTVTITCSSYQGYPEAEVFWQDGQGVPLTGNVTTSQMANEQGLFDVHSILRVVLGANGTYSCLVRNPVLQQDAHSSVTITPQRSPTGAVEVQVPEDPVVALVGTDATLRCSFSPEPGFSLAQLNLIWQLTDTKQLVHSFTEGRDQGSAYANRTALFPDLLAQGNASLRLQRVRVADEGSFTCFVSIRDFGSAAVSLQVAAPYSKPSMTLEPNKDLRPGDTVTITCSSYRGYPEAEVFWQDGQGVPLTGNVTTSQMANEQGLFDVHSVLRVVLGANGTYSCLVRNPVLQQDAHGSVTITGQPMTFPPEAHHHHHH

[4] = target: T4, human B7-H3-4Ig on CHO-S cells …; assay: flow cytometry on CHO-S-human B7-H3-4Ig cells
[5] = target: T9, rat B7-H3-2Ig-His protein (rat, UniProt Q7TPB4 29-248); assay: BLI (ForteBio), antibody captured on Protein A sensor, antigen in solution
T9 construct: extracellular domain; also called rat B7-H3-his
T9 sequence: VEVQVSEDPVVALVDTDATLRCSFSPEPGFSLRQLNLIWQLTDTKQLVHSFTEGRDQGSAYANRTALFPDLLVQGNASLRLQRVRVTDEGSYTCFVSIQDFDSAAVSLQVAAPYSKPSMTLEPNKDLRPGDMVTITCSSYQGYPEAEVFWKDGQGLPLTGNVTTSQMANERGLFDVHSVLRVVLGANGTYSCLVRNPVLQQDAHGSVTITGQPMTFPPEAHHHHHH

T1 sequence (Q9NZQ7 19-238): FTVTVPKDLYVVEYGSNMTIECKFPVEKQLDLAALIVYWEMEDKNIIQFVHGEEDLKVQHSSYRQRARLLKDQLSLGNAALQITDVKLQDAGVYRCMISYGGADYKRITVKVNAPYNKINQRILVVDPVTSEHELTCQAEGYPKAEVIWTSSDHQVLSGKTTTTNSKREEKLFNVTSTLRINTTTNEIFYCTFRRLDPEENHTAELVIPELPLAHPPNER

B1: anti-human-B7-H3 human antibody 2#8890 (antibody, human IgG1, kappa, V domains shown)
VH: QVQLQESGPGLVQPSGTLSLTCAVSGGSDSSTNWWTWVRQSPGQGLEWIGEISPIGFTSYSPSLRSRVTISVDKSKTQFSLKLSSVTAADTAVYYCARDRLYFAFWGQGTLVTVSS
VL: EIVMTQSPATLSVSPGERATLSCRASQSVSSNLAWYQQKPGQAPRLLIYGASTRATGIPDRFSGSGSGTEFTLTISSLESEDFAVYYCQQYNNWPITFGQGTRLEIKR
binding result (human B7-H1-mFc): no binding (tested: 10 ug/ml highest concentration)
binding result (human B7-H4-hFc): no binding (tested: 10 ug/ml highest concentration)
EC50 [1]: 6.34 ng/mL
CDC: EC50 of killing of target cell CHO-S-B7-H3-4Ig with 10% guinea pig serum complement [2]: 2920 ng/mL
binding result (human B7-1-his): no binding (tested: 10 ug/ml highest concentration)
binding result (human B7-H2-his): no binding (tested: 10 ug/ml highest concentration)
binding result (human B7-2-his): no binding (tested: 10 ug/ml highest concentration)
EC50 [3]: 1.93 ng/mL
EC50 [4]: 0.115 µg/mL
binding result [5]: no binding (tested: 200 nM highest concentration)

— patent EP4596582A1 (Sichuan Kelun-Biotech Biopharmaceutical Co., Ltd., dated 2025)
